# Biological target: SARS-CoV-2 virus particles (spike presumed target) (SARS-CoV-2 (isolate not in material)) (UniProt P0DTC2)
row,Sequence,binding signal [A450]
1,GGTATTGAGGGTCGCATCGTTACTGGACCAAACAGCACAAAGGACGCCCATAAACCCGGATGGCTCTAACTCTCCTCT [aptamer R (Apt@R2)],0.83
2,GGTATTGAGGGTCGCATCGTAATAGCGCATGTTGTGAGGCAGGCGCGAATCAGCTCGTGAGATGGCTCTAACTCTCCTCT [aptamer T (Apt@T2)],0.74

# — publication PMC10477244
